# Laboratory results as given in patent publication US20190309044A1, “POLYPEPTIDES AND USES THEREOF AS A DRUG FOR TREATMENT OF AUTOIMMUNE DISORDERS” (Compugen Ltd., priority 2017, published 2019).
# What was measured:
# [1] = test system: SJL/J mice; test: BBB breakdown and inflammation by fluorescence molecular tomography, adoptive transfer R-EAE; assay type: in vivo, mouse; settings: Day +30
# Procedure: Commercially available near infrared (NIR) imaging agents were used to perform tomographic imaging (PerkinElmer Inc., Boston, Mass.). AngioSense®750 was used as a vascular imaging agent, and Cat B® 680 FAST was used to detect regions of increased lysosomal cathepsin B activity. For the in vivo imaging, mice were injected intravenously with 4 nmol of NIR fluorescent agent 24 hrs prior to imaging, and imaged following the last treatment with Control Ig or C1ORF32 ECD-Fc (SEQ ID NO: 42) (Day +30 post-PLP139-151 blast cell transfer). At the time of imaging, mice were anesthetized by administration of sodium pentobarbital (50 mg/kg) and then imaged using the FMT 2500 fluorescence molecular tomography in vivo imaging system (PerkinElmer Inc., Boston, Mass.). […] Appropriate optical filters allowed the collection of both fluorescence and excitation datasets, and the multiple source-detector fluorescence projections were normalized to the paired collection of laser excitation data. […] The collected fluorescence data was reconstructed by FMT 2500 system software (TrueQuant, PerkinElmer Inc., Boston, Mass.) which compensates for the effects of tissue heterogeneity on light scattering, allowing for the quantification of fluorescence signal within multiple organ regions. […] All data was normalized to fluorescence detected in CFA/saline-immunized healthy control mice. […]
# [2] = test system: male DBA-1 mice; test: Established collagen induced arthritis (CIA), macroscopic and histological scores; assay type: in vivo, mouse
# Procedure: Bovine type II collagen (CII) (RUNMC in house production, batch 03-04-08) at a concentration of 2 mg/ml in acetic acid 0.05M was emulsified in equal volumes of Freund's complete adjuvant (2 mg/ml of Mycobacterium tuberculosis strain H37Ra; Difco, Detroit, Mich.).
# On day 0, 10-12 week old male DBA-1 mice (Janvier Elevage, France) (n=95) were immunized i.d. at the base of the tail with 100 μg of bovine CII. On day 21, mice received an intraperitoneal booster injection of 50 μg of CII dissolved in phosphate buffered saline (PBS), and the onset of arthritis occurred a few days after this booster.
# Joint inflammation in each paw was scored visually, using a scale of 0-2 per paw with a maximal score of 8 per animal: 0=non inflamed, 1=mild inflammation, 1.5=marked inflammation, and 2=severe inflammation. Scoring was performed three times a week.
# Treatment was started in established CIA early after onset of disease (i.e. therapeutic regimen), when the macroscopic scores per animal were between 0.25 and 1.25 (on a scale of 0-8). […] Histology was scored for inflammation and destruction on an arbitrary scale of 0-3, for five different parameters: […]
# Joints were fixed for at least 4 days in 4% formaldehyde, decalcified in 5% formic acid, and subsequently dehydrated and embedded in paraffin. […] The severity of inflammation in the joints was scored on a scale of 0-3 (0=no cells, 1=mild cellularity, 2=moderate cellularity, and 3=maximal cellularity). […] Depletion of PG was determined using an arbitrary scale of 0-3, ranging from normal, fully stained cartilage to destained cartilage, fully depleted of PGs. Chondrocyte death was scored on a scale of 0-3 ranging from no loss of chondrocyte nuclei to complete empty cartilage surface. The degree of cartilage surface erosion was scored on a scale of 0-3, ranging from no damage to complete loss of articular cartilage. […] Histopathological changes in the joint were scored on three semiserial sections of the joint spaced 70 μm apart. […]
molecule,measurement,setting,value
"C1ORF32 ECD-Fc (SEQ ID NO:42): human-mouse fusion protein: human C1ORF32 ECD fused to mouse immunoglobulin Fc (SEQ ID NO:42) (protein, Fusion protein human C1ORF32-ECD fused to mouse IgG2a Fc) LQVTVPDKKKVAMLFQPTVLRCHFSTSSHQPAVVQWKFKSYCQDRMGESLGMSSTRAQSLSKRNLEWDPYLDCLDSRRTVRVVASKQGSTVTLGDFYRGREITIVHDADLQIGKLMWGDSGLYYCIITTPDDLEGKNEDSVELLVLGRTGLLADLLPSFAVEIMGSENLYFQGSGEPRGPTIKPCPPCKCPAPNLLGGPSVFIFPPKIKDVLMISLSPIVTCVVVDVSEDDPDVQISWFVNNVEVHTAQTQTHREDYNSTLRVVSALPIQHQDWMSGKEFKCKVNNKDLPAPIERTISKPKGSVRAPQVYVLPPPEEEMTKKQVTLTCMVTDFMPEDIYVEWTNNGKTELNYKNTEPVLDSDGSYFMYSKLRVEKKNWVERNSYSCSVVHEGLHNHHTTKSFSRTPGK",monocyte/macrophage activity in the brain and spinal cord (lysosomal CathepsinB activity),[1]; did not reach statistical significance,decreased monocyte/macrophage activity
same,vascular leakage in the brain and spinal cord (AngioSense),[1]; significantly reduced levels,decreased vascular leakage
same,clinical (macroscopic) scores of arthritis,"[2]; 10 mg/kg i.p. 3x/wk 2 wks, p<0.001 vs mIgG2a",significantly reduced
same,overall outcome in three CIA studies,"[2]; mouse, in vivo",excellent results in two studies and weak results in one study
